Tests used:
NCS-1 = molecular target: T1, NCS-1 (Homo sapiens, UniProt P62166); assay: In vitro pull-down binding of NCS-1 to GST-PQ constructs, Western blot densitometry; details: for average NCS-1 bound: 5 μM GST fusion protein, 5 μM NCS-1, 1 h, 4 °C, pH 7.4, normalized: NCS-1 bound to GST-PQ with Ca2+ = 100%, minimal binding without Ca2+ = 0%, mean of n = 3
T1 construct: His tag (TEV-cleavable) (N, cleaved yes); made in house; host or cells: Escherichia coli BL21(DE3)

CaM = assay: In vitro pull-down binding of CaM to GST-PQ constructs, Western blot; design: species or system human; details: presence or absence of 1 μM free Ca2+
From the text: DNA constructs and molecular biology GST-NCS-1[24] and NCS-1-mCherry[18] plasmids were as previously described. The coding sequence for human CaM was amplified by polymerase chain reaction (PCR) from oligo-dT(15)-primed HeLa cell RNA and reverse-transcribed first-strand cDNA template with the following primer pair (based on GenBank accession number M19311) containing restriction endonuclease sites (underlined) for subcloning into N-terminal GST tag vector pGex6P-1 (Amersham Biosciences): sense (BamHI), 5′-[…]-3′; antisense (XhoI), 5′-[…]-3′. GST-P/Q, encoding residues 1898–2035 of the rat P/Q channel α1 subunit (GenBank accession number NM_012918) was amplified by PCR from a rat brain single-strand cDNA template with the following primer pair containing restriction endonuclease sites (underlined) for subcloning into pGex6P-1: sense (BamHI), 5′-[…]-3′; antisense (XhoI), 5′-[…]-3′. GST-CBD (residues 1950–2035) of the rat P/Q channel α1 subunit was amplified by PCR from the GST-P/Q template using the P/Q reverse primer and a sense primer containing a BamHI site (underlined) for subsequent subcloning into pGex6P-1 (5′-[…]-3′). GST-P/Q^IM→EE was generated by site-directed mutagenesis of the GST-P/Q plasmid using the QuikChange reagents and protocol (Agilent Technologies) and the following primer pair: sense, 5′-[…]-3′; antisense, 5′-[…]-3′.
For the In vitro protein binding assays, 5 μM GST fusion protein (GST-P/Q, GST-P/Q^IM→EE, or GST-CBD) was immobilized onto 30 μL of glutathione-agarose resin (Thermo Scientific) that had been prewashed in binding buffer (BB) [150 mM KCl, 20 mM HEPES (pH 7.4), 10% (v/v) glycerol, 5 mM NTA, 5 mM EGTA, 1 mM DTT, and 0.1% (v/v) NP-40] or BB supplemented with 1 μM free Ca^2+ (BB+Ca^2+) by incubation for 30 min with constant agitation at 4 °C. […]
Nitrocellulose filters were blocked by incubation in a blocking solution [3% (w/v) skim milk powder in PBS] for 1 h at room temperature. […] Densitometry analysis of developed Western blots was performed using Quantity-1 (Bio-Rad). […]

HeLa cells = assay: Localization of fluorescently tagged proteins in HeLa cells, confocal imaging, puncta scoring; type: cell-based; details: for cells with puncta: 24 h post-transfection, means ± SEM
From the text: Myristoylated PQ (residues 1898–2035, ^myrPQ-YFP) was constructed as follows. A DNA fragment encoding the myristoylation sequence taken from ref ([25]) was inserted between the XhoI and HindIII sites of pEYFP-N1 (Clontech) to generate p^myrEYFP-N1. PQ^1898–2035 was amplified by PCR from the existing pGex template with the following primer pair containing restriction endonuclease sites (underlined) for subsequent subcloning into p^myrEYFP-N1: sense (HindIII), 5′-ATAT AAGCTTAAGTCCACGGACCTGACAGTG-3′; antisense (SacII), 5′-ATAT CCGCGGGGGGAGGTAGTGTTCGCTGTC-3′. All constructs were verified by dideoxy sequencing (The Sequencing Service, University of Dundee, Dundee, U.K.).
HeLa cells were cultured in DMEM supplemented with 10% (v/v) fetal bovine serum, 1% (v/v) penicillin/streptomycin, and 1% (v/v) nonessential amino acids. All cells were maintained in a humidified 95% air/5% CO2 atmosphere at 37 °C. Cells were plated onto sterile 13 mm round coverslips at a density of 0.25 × 10^6 cells/well. After 24 h, cells were transiently transfected with the indicated expression vectors using GeneJuice transfection reagent (Novagen) according to the manufacturer’s protocol. For single and double transfections, 1 μg of each plasmid was used.
Twenty-four hours post-transfection, cells on coverslips were washed with phosphate-buffered saline [137 mM NaCl, 2.7 mM KCl, 10 mM Na2PO4, and 2 mM NaH2PO4 (pH 7.4)] and then fixed with 4% (v/v) formaldehyde in PBS for 6 min at room temperature. Coverslips were subsequently air-dried and mounted onto microscope slides using Prolong antifade glycerol (Life Technologies). Fixed cells were imaged using a Leica TCS-SP2 confocal system (Leica Microsystems, Heidelberg, Germany) with a pinhole set to 1 Airy unit and a 63× oil immersion objective with a numerical aperture of 1.3. Images were exported as TIFF files and compiled, processed, and analyzed with ImageJ and CorelDraw X6 applications.

[1] = without Ca2+ (5 mM EGTA, 5 mM NTA)

T1 sequence (P62166 whole entry, species assumed, the tested form may be a part): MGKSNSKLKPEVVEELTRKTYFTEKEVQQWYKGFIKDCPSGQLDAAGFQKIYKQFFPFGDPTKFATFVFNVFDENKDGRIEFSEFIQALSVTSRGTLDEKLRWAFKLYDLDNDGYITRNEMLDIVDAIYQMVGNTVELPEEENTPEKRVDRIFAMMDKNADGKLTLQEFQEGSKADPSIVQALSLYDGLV

Molecule | NCS-1 binding (qualitative) (NCS-1; presence or absence of 1 μM free Ca2+, Western blot) | average NCS-1 bound (NCS-1; with Ca2+ (1 μM free Ca2+)) [%] | average NCS-1 bound (NCS-1; [1]) [%] | CaM binding (qualitative) (CaM) | cellular localization (HeLa cells; HeLa cells, without myrPQ-YFP puncta) | colocalization of soluble mCherry with myrPQ-YFP (HeLa cells; control cotransfection with soluble mCherry, data not shown) | cells with puncta (HeLa cells; control myrPQ-YFP + mCherry, three independent experiments) [%] | cells with puncta (HeLa cells; cotransfected NCS-1-mCherry + myrPQ-YFP, four independent experiments) [%]
GST-PQ: GST-tagged residues 1898–2035 of the rat P/Q channel α1 subunit, encompassing IQ motif and CBD (protein, UniProt P54282 1898-2035, looked up, fragment, GST tag, GST-tagged residues 1898–2035 of the rat P/Q channel α1 subunit, encompassing IQ motif and CBD) KSTDLTVGKIYAAMMIMEYYRQSKAKKLQAMREEQNRTPLMFQRMEPPSPTQEGGPSQNALPSTQLDPGGGLMAQESSMKESPSWVTQRAQEMFQKTGTWSPERGPPIDMPNSQPNSQSVEMREMGTDGYSDSEHYLP | Ca^2+-dependent binding | 100 | 31.2 | Ca^2+-dependent binding | – | – | – | –
^myrPQ-YFP: C-terminally YFP-tagged P/Q 1898–2035 with N-terminal myristoylation consensus sequence (protein, UniProt P54282 1898-2035, looked up, fragment, N-terminal myristoylation sequence, C-terminal YFP tag) KSTDLTVGKIYAAMMIMEYYRQSKAKKLQAMREEQNRTPLMFQRMEPPSPTQEGGPSQNALPSTQLDPGGGLMAQESSMKESPSWVTQRAQEMFQKTGTWSPERGPPIDMPNSQPNSQSVEMREMGTDGYSDSEHYLP | – | – | – | – | plasma membrane and/or large cytosolic puncta | no colocalization | 43.6 ± 3 | 39.5 ± 9.2
GST^IM→EE: GST-PQ with IM residues at positions 1913 and 1914 mutated to glutamic acid (protein, UniProt P54282 1898-2035, looked up, variant I1913E M1914E, GST tag, GST-PQ with IM residues at positions 1913 and 1914 mutated to glutamic acid) KSTDLTVGKIYAAMMEEEYYRQSKAKKLQAMREEQNRTPLMFQRMEPPSPTQEGGPSQNALPSTQLDPGGGLMAQESSMKESPSWVTQRAQEMFQKTGTWSPERGPPIDMPNSQPNSQSVEMREMGTDGYSDSEHYLP | – | – | 2.8 | no detectable binding | – | – | – | –
GST-CBD: GST-tagged CaM-binding domain, residues 1950–2035 of the rat P/Q channel α1 subunit (protein, UniProt P54282 1950-2035, looked up, fragment, GST tag) EGGPSQNALPSTQLDPGGGLMAQESSMKESPSWVTQRAQEMFQKTGTWSPERGPPIDMPNSQPNSQSVEMREMGTDGYSDSEHYLP | – | – | 4.9 | no detectable binding | – | – | – | –

— PMC4180279 (Biochemistry, 2014)
